In one data set the test system is N2a cells. The data set is described as follows: BH3I- and staurosporine-induced caspase 3 cleavage/activation. It is filed as cell-based. As to the method:
N2a cells were first subjected to downregulation of 168 by RNAi, and were then treated with apoptotic reagents BH3I and staurosporine. […] In addition, 168 is subjected to cleavage under apoptotic treatments (indicated by *).

The target in another data set is T1, APP-AICD (AID) (Homo sapiens, UniProt P05067).
T1 construct: The intracellular end of human APP was amplified, i.e., AID, was amplified; expressed in transfected cells; host or cells: yeast AH109
Put plainly: Yeast two-hybrid assay with quantitative β-galactosidase activity. It is filed as binding. The following applies: yeast AH109 co-transfected with pGBKT7-AID; ONPG substrate. From the text:
The interaction of AICD-Ga14 activation domain (AD) with 168(264-304) fragment-DNA binding domain (DBD) activates GAL4-driven beta-galactosidase expression in yeast.
The intracellular end of human APP was amplified, i.e., AID, was amplified. In order to completely expose AID, 5 amino acids of Aβ and […] (SEQ ID NO:9) were extended in front of AID. The PCR product was recovered and purified. It was then inserted into protein expression vector pGBKT7 for identification by means of sequencing. The successfully constructed vector is named pGBKT7-AID. Positively identified pGBKT7-AID was transferred into yeast AH109, and then cultured on a SD/-Trp plate. […]
Screening and Identification of Positive Clones: Yeast expression vector pGBKT7 contained the autocrine gene of Trp (tryptophan) and the DNA binding domain of GAL4. pACT2 contained the autocrine gene of Leu (leucine) and the DNA activation structure domain. […] The results were compared and analyzed against information available in GenBank.
Quantitative Analysis of β-galactosidase Activity: Yeast co-transfected positive clones grown on the plate were picked and cultured further in a SD/Leu/-Trp liquid culture medium at 30° C. overnight. […] The solution was centrifuged and the supernatant was taken to measure its absorbance at 420 nm to calculate its β-galactosidase activity. […]

Another data set has as its target T2, APP (Homo sapiens, UniProt P05067).
T2 construct: expressed in transfected cells; host or cells: 293T cells
Put plainly: Anti-APP (369) IP and anti-myc Western blot in co-transfected 293T cells. It is filed as binding. The following applies: myc-168 or deletion mutants co-transfected with APP into 293T cells. From the text: Protein expressions are shown in the middle and lower panels.
Deletion mutants of myc-168 and APP were co-transfected into 293T cells and cell lysates subjected to anti-APP (369) IP and anti-myc WB to detect 168-APP interaction (upper panel).
Background: In western blotting, separated proteins are transferred to a membrane and probed.

The next data set deals with T3, APP-AICD(C99) (Homo sapiens, UniProt P05067).
T3 construct: Deletion mutants of HA-168 and myc-tagged APP-AICD(C99) were co-transfected into 293T cells; myc; expressed in transfected cells; host or cells: 293T cells
The data set is described as follows: Anti-myc IP and anti-HA Western blot in co-transfected 293T cells. It is filed as binding. The source says: IP-WB the minimal domain of 168 to interact with AICD is 118-264AA. Deletion mutants of HA-168 and myc-tagged APP-AICD(C99) were co-transfected into 293T cells and cell lysates subjected to anti-myc IP and anti-HA WB to detect 168-APP interaction (upper panel). Protein expressions are shown in the middle and lower panels.

The subject of the next data set is 239T cells. Put plainly: Apoptosis by annexin V/PI double staining after 168 expression. It is filed as cell-based.
The test system of another data set is 293T cells. Put plainly: Cytochrome c release from mitochondria, immunoblotting of mitochondria and cytosol. It is filed as cell-based. The following applies: 293T cells transfected with 168. From the text:
Mitochrondia and cytosol were isolated from 293T cells transfected with 168 and subjected to immunoblotting with different antibodies: Tubulin serves as a cytosol marker and CoxIV as a mitochondrial marker.

Data set [1] deals with mitochondrial membrane potential. Put plainly: Mitochondrial membrane potential after 168 expression. It is filed as cell-based. From the text:
MCCP: an ionophore to disrupt proton gradient used as a positive control to decrease mitochondrial membrane potential.

The subject of data set [2] is N2a cells stably expressing human APP695. Put plainly: Aβ generation and APP metabolism, IP and Western blot. It is filed as cell-based. The source says: (§1) N2a cells stably expressing human APP695 were transfected with NotchΔE-myc(Notch lacking its ectodomain and carrying a myc tag at its C-terminus) for 1 day. Cells were split equally and transfected with 168 with different dosage for 2 days. Conditional media were collected for sAPPα and secretary Aβ assays. Cells were lysed in 6% SDS and assayed for Notch/NICD conversion and APP metabolism. 168/FLJ20551 and Notch/NICD were detected using myc antibody 9E10. APP AICD was detected using APP C-terminus antibody 369. APP βCTFs, intracellular Aβ, and secretary Aβ in conditional media were immunoprecipitated using antibody 4G8 and detected using antibody 6E10. Soluble APPα were detected using 6E10. α-tubulin was used as control.

The next data set relates to Notch. The data set is described as follows: Notch/NICD conversion, Western blot. It is filed as cell-based. The following applies: overexpression of 168; NotchΔE-myc transfected N2a cells; ratios of NICD to Notch.
Source text: as §1

For data set [3], the system named is N2a cells stably expressing human APP Swedish mutations. The data set is described as follows: Aβ40 generation, IP and urea gel. It is filed as cell-based. The following applies: overexpression of 168, 2 days, secreted Aβ in conditional media. How it is done: N2a cells stably expressing human APP Swedish mutations were transfected with 168 for 2 days. Secretary Aβ in conditional media were immunoprecipitated using antibody 4G8 and detected using antibody 6E10. The samples were analyzed using Urea gel, which can differentiate variant Aβ species.

The subject of a further data set is mouse fibroblast cells. The data set is described as follows: 168-mediated apoptosis in APP WT and APP/APLP2 DKO cells, annexin V/PI double staining. It is filed as cell-based. The following applies: mouse fibroblast cells transfected with 168. From the text:
APP wild type (WT) and APP/APLP2 double knockout (DKO) mouse fibroblast cells were transfected with control (vector) or 168.

These results are taken from patent US20120071629A1, “APPOPTOSIN AND USES THEREOF FOR TREATING NEURODEGENERATIVE DISEASE AND CANCER” (Tsinghua University, priority 2006, published 2012).

In the case of `CN[C@@H]1C[C@H]2O[C@@](C)([C@@H]1OC)n1c3ccccc3c3c4c(c5c6ccccc6n2c5c31)C(=O)NC4` [staurosporine], in the data set on N2a cells, the “caspase 3 cleavage for activation upon apoptotic treatment” value was “cleaved”.

B1: 168: Appoptosin polypeptide; human amino acid sequence SEQ ID NO:2; expressed in cells by transfection (protein)
chain: MIQNSRPSLLQPQDVGDTVETLMLHPVIKAFLCGSISGTCSTLLFQPLDLLKTRLQTLQPSDHGSRRVGMLAVLLKVVRTESLLGLWKGMSPSIVRCVPGVGIYFGTLYSLKQYFLRGHPPTALESVMLGVGSRSVAGVCMSPITVIKTRYESGKYGYESIYAALRSIYHSEGHRGLFSGLTATLLRDAPFSGIYLMFYNQTKNIVPHDQVDATLIPITNFSCGIFAGILASLVTQPAGVIKTHMQLYPLKFQWIGQAVTLIFKDYGLRGFFQGGIPRALRRTLMAAMAWTVYEEMMAKMGLKS
modifications: Description of Artficial Sequence note = synthetic construct
notes: Appoptosin polypeptide; expressed in cells by transfection
Consider B1, for which the “intensity of interaction with AID (bait protein) by β-galactosidase activity” value with APP-AICD (AID) is given as “fairly intense”. Besides, in the data set with APP, the “interaction with APP in IP-WB” value is “interacts”. The “interaction with APP-AICD(C99) in cells” value with APP-AICD(C99) (HA-168 deletion mutants and myc-tagged C99 co-transfected into 293T cells) is “interacts”. Besides, the “minimal domain of 168 to interact with AICD” value in the data set with APP-AICD(C99) (IP-WB) is given as 118-264AA. The apoptosis result in the data set on 239T cells is reported as “induces apoptosis”. Moreover, the “cytochrome c release from mitochondria” value in the data set on 293T cells is recorded as “induces cytochrome c release”. Also, in data set [1], the mitochondrial membrane potential result was “decrease”. In addition, the sAPPα entry in [2] (overexpression of 168, conditional media) was “slightly increases”. In addition, the Aβ generation entry in data set [2] (overexpression of 168, different dosage, 2 days) is on record as “inhibits Aβ generation in a dose-dependent manner”. Further, the “conversion of Notch to NICD” value in the data set on Notch is “does not affect”. In addition, the Aβ40 generation result in data set [3] was “reduces Aβ40 generation in a dose-dependent manner”. The “168-induced cell apoptosis in APP/APLP2 DKO cells compared with APP WT cells” value in the data set on mouse fibroblast cells is reported as “dramatically less”.

B2: 118-304AA: deletion mutant of myc-168, amino acids 118-304 (protein)
chain: GHPPTALESVMLGVGSRSVAGVCMSPITVIKTRYESGKYGYESIYAALRSIYHSEGHRGLFSGLTATLLRDAPFSGIYLMFYNQTKNIVPHDQVDATLIPITNFSCGIFAGILASLVTQPAGVIKTHMQLYPLKFQWIGQAVTLIFKDYGLRGFFQGGIPRALRRTLMAAMAWTVYEEMMAKMGLKS
modifications: left off: small tags and cut ends
Turning to B2, in the data set with APP, the “interaction with APP in IP-WB” value is “still detected”.
